Source: US20220177549A1 (INVETX, published 2022)

Biological target: T1, equine FcRn complex (equine, UniProt F6XZ61 19-292; P30441 21-118)
T1 construct: Heterodimer of p51 extracellular domain (Avi-tag, 8x His) and Flag-tagged beta-2-microglobulin from HEK293 cells; also called horse FcRn
Experiment: SPR (Biacore 8K+), pH 5.9, 25 C; FcRn captured by anti-His, IgG as analyte; 1:1 kinetic model

B1: Equine G426Y (antibody)
chain: APELLGGPSVFIFPPNPKDTLMITRTPEVTCVVVDVSQENPDVKFNWYMDGVEVRTATTRPKEEQFNSTYRVVSVLRIQHQDWLSGKEFKCKVNNQALPQPIERTITKTKGRSQEPQVYVLAPHPDELSKSKVSVTCLVKDFYPPEINIEWQSNGQPELETKYSTTQAQQDSDGSYFLYSKLSVDRNRWQQGTTFTCYVMHEALHNHYTQKNVSKNPGK
Fold increase over wild-type KD: 2.8 fold | Kd: 52.3 nM
